{
  "source": "patent US20240391987A1",
  "about": "(ALAMAB THERAPEUTICS, published 2024)",
  "key": {"[1]": {"target": "T1, Cx43 hemichannels of mouse osteocytes (MLO-Y4 cells) (mouse, UniProt P23242 2-382)", "T1 sequence (P23242 2-382)": "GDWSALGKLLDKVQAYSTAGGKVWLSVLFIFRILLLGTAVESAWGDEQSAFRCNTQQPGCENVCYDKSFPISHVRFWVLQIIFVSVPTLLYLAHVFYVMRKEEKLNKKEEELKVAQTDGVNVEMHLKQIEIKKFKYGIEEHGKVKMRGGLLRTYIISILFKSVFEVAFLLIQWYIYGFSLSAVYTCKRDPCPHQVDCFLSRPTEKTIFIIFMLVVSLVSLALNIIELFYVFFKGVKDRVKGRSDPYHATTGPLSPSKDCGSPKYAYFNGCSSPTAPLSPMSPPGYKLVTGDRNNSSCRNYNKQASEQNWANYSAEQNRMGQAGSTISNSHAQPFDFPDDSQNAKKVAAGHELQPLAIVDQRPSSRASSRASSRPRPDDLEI", "experiment": "cell-based or functional assay"}, "[2]": {"target": "T2, Cx43 hemichannels of primary human osteocytes (human, UniProt P17302 2-382)", "T2 sequence (P17302 2-382)": "as the sequence (P23242 2-382) above, with E123D, V163I, R242K, T250S, P252A, S256A, P262Q, S340N, A343S, V346L counted along it", "experiment": "cell-based or functional assay"}, "[3]": {"target": "T2, Cx43 hemichannels of primary human …", "experiment": "cell ELISA on primary human osteocytes"}, "[4]": {"target": "T1, Cx43 hemichannels of mouse osteocytes …", "experiment": "cell ELISA on mouse osteocytes (MOL-Y4)"}},
  "data": [
    {"binder": "ALMB-0168 (antibody, V domains shown, also called anti-Cx43 antibody) VH: EVQLVQSGAEVKKPGASVKVSCKASGYTFTSYYMYWVRQAPGQGLEWIGGINPSNAGTNFNEKFKNRATLTVDKSTSTAYMELSSLRSEDTAVYYCTREGNPYYTMNYWGQGTLVTVSS VL: DVVMTQSPLSLPVTIGQPASISCKSSQSLLESDGKTYLNWLQQRPGQSPRRLIYLVSKLDSGVPDRFSGSGSGTDFTLKISRVEAEDVGVYYCWQGTHFPWTFGGGTKVEIKR", "values": [
      {"measurement": "EC50 of Cx43 hemichannel opening, EB staining, MOL-Y4 cells", "setting": "[1]", "result": 2.33, "unit": "µg/mL"},
      {"measurement": "plasma ATP level in mice, luciferin/luciferase assay, against saline-treated mice", "setting": "[1]", "result": "> 5", "unit": "fold"},
      {"measurement": "EC50 of Cx43 hemichannel opening, EB staining, human osteocytes", "setting": "[2]", "result": 3.97, "unit": "µg/mL"},
      {"measurement": "EC50", "setting": "[3]", "result": 41, "unit": "µg/mL"},
      {"measurement": "EC50", "setting": "[4]", "result": 37.3, "unit": "µg/mL"}
    ]}
  ]
}
